{"source": "patent US20110286916A1", "about": "(published 2011)", "binders": {"B1": {"name": "hN1S3-087 (scFv, V domains shown)", "VH": "QVQLVQSGAEVKKPGASVRISCKTSGFTFTSYFIHWVRQAPGQRPEWMGVINPSRGNADYAPRFRGRVTMTRDKSTHTVYMDLKSLRSDDAAIYYCARDRLGGLLDYYDSSDSSKNFDAFDFWGQGTLVTVSS", "VL": "NFMLTQPHSVSESPGKTVTISCTRSSGSIGSSYVQWYQQRPGTSPVTIIYEDSQRPSGVPDRFSGSIDNSANSASLTISGLKTEDEADYYCQSYDANNRVFGGGTKLTVL", "notes": "phage scFv"}, "B2": {"name": "hN1S3-190 (scFv, V domains shown)", "VH": "B1 VH", "VL": "SSELTQDPAVSVALGQTVRITCQGDSLRSNYPSWYQQKPGQAPLLVIYSENRRPSGIPDRFSASRSGNTASLTITGAQAEDEADYYCHSRGSSGNHKVFGGGTQLTVL", "notes": "phage scFv"}, "B3": {"name": "N1wc21 (scFv, V domains shown)", "VH": "QVQLVESGAEVKKPGASVKVSCKASGYTFTDHYIQWLRQAPGQGLEWMGWMNPKSGGTNYAQKFQGRVTLTRDTSISTAYMDLSGLRFDDTAIYFCASDPTIPPSPNYDYYYYAMDLWGKGTLVTVSS", "VL": "SYELTQPPSVSVSPGQTARITCSGDALPDKYVHWYQQKSGQAPVLVLFDDSKRPSGIPERFSGSSSGTVATLIISGAQVEDEGDFFCYSTDSSGNERVFGGGTKLTVL", "notes": "phage scFv"}, "B4": {"name": "N1wc82 (scFv, V domains shown)", "VH": "not shown", "VL": "QSVLTQPPSVSATPGQKVTISCSGSNSNIGNNYVSWYQQLPGTAPKLLIYDSDQRPAGIPDRFSGSKLGTSATLGITGLQTGDEADYYCATWDAGLSVLIFGGGTKLTVL", "notes": "phage scFv"}, "B5": {"name": "hN1S3-002 (scFv, V domains shown)", "VH": "GVQLVQSGAEVKKPGASVKVSCKASGYTFTDYYVHWVRQAPGQGPEWMGWINPNNGGTKYAQKFQGRVTMTTDTSTSTAYMELRSLRSDDTALYYCARDLLPYYGDYRADKIDDFDIWGRGTLVTVSS", "VL": "QSVLTQPPSASGTPGQRVTISCSGSSSNIGSNTVNWYQRLPGAAPQLLIYNNDQRPSGIPDRFSGSKSGTSGSLVISGLQSEDEADYYCASWDDSLNGRVFGGGTKLTVL", "notes": "phage scFv"}, "B6": {"name": "hN1S3-107 (scFv, V domains shown)", "VH": "EVQLVQSGPEVKKPGASVKVSCKASGYTFTDYFLNWVRQAPGQGLEWIGWINPNTGGTNYAQNFQGRVTVTRDASISTAYMELRSLTSADTAIYYCARGAYDYVWGSHRYVADAFDIWGQGTLVTVSS", "VL": "B5 VL", "notes": "phage scFv"}, "B7": {"name": "hN1S3-153 (scFv, V domains shown)", "VH": "QVQLQESGGGLVQPGGSLSLSCATSGFTFGNYVMRWVRQAPGKGLEWVSTITEGGGDFIYYADSVKGRFAISRDNSKSTVYLHMNGLRVEDTAVYYCAKSGGDDNSNYNFEYWGQGTLVTVSS", "VL": "QAVLTQPSSVSGAPGQRVIISCTGTSSNTGAGYYVNWYQQLPGAAPKVLIFGNDNRPSGVPDRFSGAKSGTSASLAITGLQAEDEADYYCQSYDRSLSGWVFGGGTKLTVL", "notes": "phage scFv"}, "B8": {"name": "hN1S3-030 (scFv, V domains shown)", "VH": "not shown", "VL": "QSVLTQPPSASGTPGQRVSISCSGSSSNIGSNYVYWYQQLPGTAPKVLVYRNNQRPSGVSDRFSGSKYGTSASLAISGLRSEDEADYYCGSWDDSLSGVVFGGGTKVTVL", "notes": "phage scFv"}, "B9": {"name": "N1wc164 (scFv, V domains shown)", "VH": "QVQLVQSGADVKKPGASVKISCKASGYTFTKYYMHWVRQAPGQGLEWMGIINPTNGYTSYAQKFQGRVTMTSDTSASTVSMELSSLRSEDTAVYYCTRSYSNYDSFDIWGRGTMVTVSS", "VL": "QAVLTQPSSVSGAPGQRITISCTGTSSNIGAGYDVEWYQHLPGTAPKLLIYRNSNRPSGVPDRFSASKSGTSASLVITGLQAEDEADYYCQSYDTRLSDSVIFGGGTKLTVL", "notes": "phage scFv"}, "B10": {"name": "hN1S3-177 (scFv, V domains shown)", "VH": "EVQLVQSGAEVKKPGASVKVSCKASGYNFTGYYMHWVRQAPGQGLEWMGWINPNSGGANYAQKFQGRVTMTRDTSISTAYMELSRLRSDDTAVYYCATDSFDYWGRGTLVTVSS", "VL": "QAVLTQPSSASGTPGQRVTISCSGSSSNIGTNYVYWYQHLPGMAPKLLLYSNNQRPSGVPDRFSGSKSGPSASLAISGLRSEDEADYYCAAWDDSLSGLVFGGGTKLTVL", "notes": "phage scFv"}, "B11": {"name": "hN1S3-006 (scFv, V domains shown)", "VH": "B10 VH with E1Q, M34I, A58T, T69I", "VL": "QAVLTQPSSASGTAGQRVTISCSGSNSNIGSNTVNWYQQLPGTTPKLLIYSNNERPSGVPDRFSGSKSGTSASLAISGLQSDDEADYYCAAWDDSLNGYVFGTGTKVTVL", "notes": "phage scFv"}, "B12": {"name": "N1wc150 (scFv, V domains shown)", "VH": "B10 VH with A58T, L109M", "VL": "SYELTQPPSASGTPGQRVTISCSGSGSNIGKNTVNWYQQLPGAAPKLLIYSNNERPSGVPGRFSGSKSGTSASLAISGLQSEDETDYYCAAWDDSLNDMVFGGGTKVTVL", "notes": "phage scFv"}, "B13": {"name": "N1wc132 (scFv, V domains shown)", "VH": "B10 VH with E1Q, M34L, A58T, N59D, M70V, S84G, R85G, A97V, T98S, Y103H", "VL": "QSVLTQPPSASGTPGQRVTISCSGSSSNIGSNPVNWYQQLPGSAPKLLVYSDDQRPSGVPDRFSGSKSGASASLAISGLQSEDESDYYCAAWDDSQNAVVFGGGTKVTVL", "notes": "phage scFv"}, "B14": {"name": "hN1S3-135 (scFv, V domains shown)", "VH": "B10 VH with A58T, R106K", "VL": "LPVLTQPPSVSEAPRQRVTISCSGSSFNIGNNAVNWYQQLPGKAPKLLIYYDDLLPSGVSDRFSGSKSGTSASLAISGLQSEDEADYYCAAWDDSLNAVVFGGGTKVTVL", "notes": "phage scFv"}, "B15": {"name": "N1wc24 (scFv, V domains shown)", "VH": "EVQLVESGPGLVKPSETLSLTCTVSGGSMTSNFWSWIRQTPGKGLEWIGYVLYTGSTNSNPSLKSRVTMSVDTSKNQVSLTLSSVTAADTAIYYCARGNGWYLPWGRGTMVTVSS", "VL": "QSVLTQPPSVSGAPRQRVTISCSGSSSNIENNIVNWYQQLPGEAPKLLIYYDNLLPSGVSDRFSGSKSGTSASLAISGLQSGDEADYYCAAWDDSLKAVVFGGGTKLTVL", "notes": "phage scFv"}, "B16": {"name": "N1wc113 (scFv, V domains shown)", "VH": "QMQLVQSGAEVKRPGASVNLSCKASGYSFSRYYIHWVRQAPGQGLELMGRINPGGGTTTYAQKFQGRVTLSRDTSTNTIFMELNGLTSEDTAMYYCARSNYDILAGYGPDAFDFWGQGTMVTVSS", "VL": "QAVLTQPSSVSGAPGQRVTISCTGSSSNIGAGNDVHWYRQFPGTAPKLLIYGNNKRPSGVSDRFSGSKSGTSASLAITGLQVEDEADYYCQSYDSSLGGSDVFGGGTKLTVL", "notes": "phage scFv"}, "B17": {"name": "hN1S3-108 (scFv, V domains shown)", "VH": "QVQLVQSGAEVRKPGASVKVSCKASGYTFTDYYLHWVRQAPGLGLEWMGWINPNTGGTDYGQKFQGRVTMTRDTSINTAYMELSSLRSDDTAVYYCARGAYDYVWGSHRYVADAFDIWGQGTTVTVSS", "VL": "DIVMTQSPSTLSASVGDRVTITCRASQGISSWLAWYQQKPGRAPKVLIYKASTLESGVPSRFSGSGSGTDFTLTISSLQPEDFATYYCQQSYSTPWTFGQGTKLEIK", "notes": "phage scFv"}, "B18": {"name": "N1wc16 (scFv, V domains shown)", "VH": "QVQLQQSGAEVKTPGASVKVSCKASGYTFTDNYIHWVRQAPGQGLEWMGRINVNSGATNYARKFQGRVTMTGDTSISTAYMDLSRLKSDDTAVYYCARDFRYSGVDVWGQGTMVTVSS", "VL": "QSVLTQPPSVSVAPGQTATLSCVGDAIERKSVHWYQQRPGQAPVLVVHDDSDRPSGIPDRISGSNSGNTATLTITRVEVGDEADYFCQVWDTSSGHDAVVFGGGTKLTVL", "notes": "phage scFv"}, "B19": {"name": "N1wc127 (scFv, V domains shown)", "VH": "not shown", "VL": "SYVLTQPPSTSGAPGQRVTISCSGSSSNIGSNGVNWYHHLPGTAPKLLIYSNFHRPSGVPDRFSGSKSGTSATLAISGLQSEDEADYYCAAWDDSLNDYVFGVGTKVTVL", "notes": "phage scFv"}, "B20": {"name": "N1wc129 (scFv, V domains shown)", "VH": "QVQLVQSGAEVKKPGASVKVSCKASGYNFTGYYLHWVRQAPGQGLEWMGWIDPNSGGTDYAQQFQGRVTVTRDTSISTAYMELSGLRSDDTAVYYCASDSFDHWGQGTLVTVSS", "VL": "QSVLTQPPSASGTPGQRATISCSGSGSNIGRNAVNWFQQLPGAAPKLLIYSNIHRPSGVPDRISGSKSGTSATLAISGLQSEDEADYYCATWDDSLNDYVFGTGTKLTVL", "notes": "phage scFv"}, "B21": {"name": "N1wc125 (scFv, V domains shown)", "VH": "QVQLQQSGAEVKKPGAPLKVSCKTSGFTFTGYYIHWVRQAPGQGLEWMGRVDPYNGATNFAQKFQGRVTMTTDTSTSTTYMELMSLRSDDTAVYYCARGWELDSWGQGTLVTVSS", "VL": "QSVLTQPASVSGSPGQSITISCTGTSSDVGGYNYVSWYQQHPGKAPKLMIYEGSKRPSGVSNRFSGSKSGNTASLTISGLQAEDEADYYCSSYTTRSTRVFGGGTKLTVL", "notes": "phage scFv"}}, "note": "Where a chain is given by its changes, count along the chain named.", "data": [{"molecular_target": "T1, human full-length Notch1 with C-terminal FLAG tag, stably expressed on 293 FlpIn (TREx) cells (human, UniProt P46531 19-2555)", "T1 construct": "tetracycline/doxycycline-induced expression from pcDNA5/FRT/TO-HN1+FLAG; also called hN1; 293_N1", "assay": "FACS, phage scFv", "values": [{"binder": "B1", "binding result": "binds"}, {"binder": "B2", "binding result": "binds"}, {"binder": "B3", "binding result": "binds"}, {"binder": "B4", "binding result": "binds"}, {"binder": "B5", "binding result": "binds"}, {"binder": "B6", "binding result": "binds"}, {"binder": "B7", "binding result": "binds"}, {"binder": "B8", "binding result": "binds"}, {"binder": "B9", "binding result": "binds"}, {"binder": "B10", "binding result": "binds"}, {"binder": "B11", "binding result": "binds"}, {"binder": "B12", "binding result": "binds"}, {"binder": "B13", "binding result": "binds"}, {"binder": "B14", "binding result": "binds"}, {"binder": "B15", "binding result": "binds"}, {"binder": "B16", "binding result": "binds"}, {"binder": "B17", "binding result": "binds"}, {"binder": "B18", "binding result": "binds"}, {"binder": "B19", "binding result": "binds"}, {"binder": "B20", "binding result": "binds"}, {"binder": "B21", "binding result": "binds"}]}, {"molecular_target": "T2, human full-length Notch3 with C-terminal FLAG tag, stably expressed on 293 FlpIn (TREx) cells (human, UniProt Q9UM47 40-2321)", "T2 construct": "whole, on cells; made by the same strategy as the Notch1 line; also called 293-N3; hN3", "assay": "FACS, phage scFv", "values": [{"binder": "B1", "binding result": "binds"}, {"binder": "B2", "binding result": "binds"}, {"binder": "B3", "binding result": "binds"}, {"binder": "B4", "binding result": "binds"}, {"binder": "B5", "binding result": "binds"}, {"binder": "B6", "binding result": "binds"}, {"binder": "B7", "binding result": "binds"}, {"binder": "B8", "binding result": "binds"}, {"binder": "B9", "binding result": "binds"}, {"binder": "B10", "binding result": "binds"}, {"binder": "B11", "binding result": "binds"}, {"binder": "B12", "binding result": "binds"}, {"binder": "B13", "binding result": "binds"}, {"binder": "B14", "binding result": "binds"}, {"binder": "B15", "binding result": "binds"}, {"binder": "B16", "binding result": "binds"}, {"binder": "B17", "binding result": "binds"}, {"binder": "B18", "binding result": "binds"}, {"binder": "B19", "binding result": "binds"}, {"binder": "B20", "binding result": "binds"}, {"binder": "B21", "binding result": "binds"}]}]}
